In patent US20240344138A1, “TARGETED THERAPIES IN CANCER” (Feng Biosciences, Inc, priority 2021, published 2024):

Key:
Format in all cases: in vivo, human
[1] = system: locally advanced or metastatic gastric cancer; test: First-line clinical trial of chemotherapy, immune checkpoint inhibitor and navicixizumab, outcome by TME phenotype
Protocol: (§1) A clinical trial is run to determine whether locally advanced or metastatic gastric cancer tumor microenvironment phenotypes correlate to clinical responses when patients are treated with chemotherapy, an immune checkpoint inhibitor, and Navicixizumab in the first-line setting. The analysis includes samples from 120 patients across 2 treatment arms (60 patients in each arm). Patients are randomized to receive either (i) chemotherapy and an immune checkpoint inhibitor or (ii) chemotherapy, an immune checkpoint inhibitor and Navicixizumab. RNA gene signatures are analyzed from tumor samples acquired before any treatments and TME phenotypes are determined. Patients are followed for clinical response, progression-free survival, and overall survival.
Gastric cancer patients are randomized to receiving a regimen of chemotherapy (e.g., capecitabine, 5-FU, cisplatin etc.) plus an immune checkpoint inhibitor (anti-PD-(L)1—e.g., an inhibitor to PD-1 or PD-L1) therapy, or a regimen of chemotherapy/immune checkpoint inhibitor/Navicixizumab. […] The correlation between each TME phenotype is tested against clinical outcome data. In immune active (IA), immune suppressed (IS) and angiogenic (A) patients the use of the regimen of chemotherapy/immune checkpoint inhibitor/Navicixizumab confers benefit in comparison to patients classified to the immune desert (ID) TME phenotype class as shown in the TABLE 26.

[2] = system: locally advanced/metastatic HER2-negative breast cancer; test: Second-line clinical trial of navicixizumab/chemotherapy or navicixizumab/PARP inhibitor, outcome by TME phenotype; settings: plus chemotherapy group
Protocol: A clinical trial is run to determine whether locally advanced/metastatic HER2-negative breast cancer tumor microenvironment phenotypes correlate to clinical responses when patients are treated with a combination of Navicixizumab/chemotherapy or Navicixizumab/PARP inhibitor in the second-line setting. […] Patients receive either Navicixizumab/chemotherapy (BRCA WT and hormone receptor-positive) or Navicixizumab/PARP inhibitor (BRCA mutant or triple-negative for ER/PR/HER2). RNA gene signatures are analyzed from tumor samples acquired before any treatments and TME phenotypes are determined. Patients are followed for clinical response and progression-free survival. […] BRCA WT/hormone receptor-positive/HER2-negative breast cancer patients receive a regimen of Navicixizumab plus chemotherapy (e.g., capecitabine, etc.). BRCA mutant or triple-negative for ER/PR/HER2 breast cancer patients receive a regimen of Navicixizumab plus a PARP inhibitor (e.g., Rucaparib, Olaparib, etc.). […] The correlation between each TME phenotype is tested against clinical outcome data. In biomarker positive tumors, represented by angiogenic (A) and immune suppressed (IS) phenotypes, the use of Navicixizumab combinations confers benefit in comparison to patients classified as biomarker negative, represented by immune active (IA) and immune desert (ID) TME phenotype classes as shown in the TABLE 27 and TABLE 28.

[3] = system: castration-resistant metastatic prostate cancer; test: Third-line clinical trial of navicixizumab/chemotherapy or navicixizumab/PARP inhibitor, outcome by TME phenotype; settings: plus chemotherapy group
Protocol: A clinical trial is run to determine whether castration-resistant metastatic prostate cancer tumor microenvironment phenotypes correlate to clinical responses when patients are treated with a combination of Navicixizumab/chemotherapy or Navicixizumab/PARP inhibitor in the third-line setting. […] Patients receive either Navicixizumab/chemotherapy (BRCA WT) or Navicixizumab/PARP inhibitor (BRCA mutant). RNA gene signatures are analyzed from tumor samples acquired before any treatments and TME phenotypes are determined. Patients are followed for clinical response, progression-free survival and overall survival. […] BRCA WT prostate cancer patients receive a regimen of Navicixizumab plus chemotherapy (e.g., docetaxel, cabazitaxel etc.). BRCA mutant prostate cancer patients receive a regimen of Navicixizumab plus a PARP inhibitor (e.g., Rucaparib, Olaparib, etc.). […] The correlation between each TME phenotype is tested against clinical outcome data. In tumors that are biomarker positive, represented by angiogenic (A) and immune suppressed (IS) phenotypes, the use of Navicixizumab combinations confers benefit in comparison to patients classified as biomarker negative, represented by immune active (IA) and immune desert (ID) TME phenotype classes as shown in the TABLE 29 and TABLE 30.

[4] = system: locally advanced or metastatic gastric cancer; test: First-line clinical trial of chemotherapy, immune checkpoint inhibitor and bavituximab, outcome by TME phenotype
Protocol: as §1, with “inhibitor, and Bavituximab in the” for “inhibitor, and Navicixizumab in the”, “immune checkpoint inhibitor, or (ii)” for “immune checkpoint inhibitor or (ii)”, “immune checkpoint inhibitor, and bavituximab.” for “immune checkpoint inhibitor and Navicixizumab.”, “inhibitor, and bavituximab. RNA gene” for “inhibitor and Navicixizumab. RNA gene”
Gastric cancer patients are randomized to receiving a regimen of chemotherapy (i.e. capecitabine, 5-FU, cisplatin etc.) plus an immune checkpoint inhibitor (anti-PD-(L)1—i.e., an inhibitor to PD-1 or PD-L1) therapy, or a regimen of chemotherapy/immune checkpoint inhibitor/Bavituximab. The combination of chemotherapy/immune checkpoint inhibitor/Bavituximab increases overall response rate (ORR), 6 month progression-free survival (PFS) and overall survival (OS) patients with advanced gastric cancer compared to the regimen of chemotherapy/immune checkpoint inhibitor alone as shown in TABLE 23. […] One hundred and twenty (120) patients are enrolled, 60 in each of the treatment groups with equal representation across the 4 stromal phenotypes (15 in each phenotype per treatment group). The correlation between each TME phenotype is tested against clinical outcome data. In immune active (IA) and immune suppressed (IS) patients the use of the regimen of chemotherapy/immune checkpoint inhibitor/Bavituximab confers benefit in comparison to patients classified to angiogenic (A) and immune desert (ID) TME phenotype classes as shown in the TABLE 24.

B1: Chemo/Immune Checkpoint Inhibitor/Navicixizumab: regimen of chemotherapy, immune checkpoint inhibitor and navicixizumab (antibody, chains of the INN, looked up, V domains shown)
VH: QVQLVQSGAEVKKPGASVKISCKASGYSFTAYYIHWVKQAPGQGLEWIGYISNYNRATNYNQKFKGRVTFTTDTSTSTAYMELRSLRSDDTAVYYCARDYDYDVGMDYWGQGTLVTVSS
VL: DIVMTQSPDSLAVSLGERATISCRASESVDNYGISFMKWFQQKPGQPPKLLIYAASNQGSGVPDRFSGSGSGTDFTLTISSLQAEDVAVYYCQQSKEVPWTFGGGTKVEIK
VH2: QVQLVQSGAEVKKPGASVKVSCKASGYTFTNYWMHWVRQAPGQGLEWMGDINPSNGRTSYKEKFKRRVTLSVDKSSSTAYMELSSLRSEDTAVYFCTIHYDDKYYPLMDYWGQGTLVTVSS
VL2: DIVMTQSPDSLAVSLGERATISCRASESVDNYGISFMKWFQQKPGQPPKLLIYAASNQGSGVPDRFSGSGSGTDFTLTISSLQAEDVAVYYCQQSKEVPWTFGGGTKVEIK
modifications: with chemotherapy and checkpoint inhibitor
[1]; A (n = 15)
  6 Month PFS (%): 66.7%
  ORR (%): 60.0%
  OS (months): 15.4 months
[1]; IA (n = 15)
  6 Month PFS (%): 73.3%
  ORR (%): 66.7%
  OS (months): 17.4 months
[1]; ID (n = 15)
  6 Month PFS (%): 53.3%
  ORR (%): 46.7%
  OS (months): 11.5 months
[1]; IS (n = 15)
  6 Month PFS (%): 73.3%
  ORR (%): 73.3%
  OS (months): 19.7 months
[1]; whole treatment group (n = 60)
  6 Month PFS (%): 67%
  ORR (%): 63%
  OS (months): 16 months

B2: Navicixizumab plus chemotherapy: navicixizumab plus chemotherapy (e.g., capecitabine in breast; docetaxel, cabazitaxel in prostate) (antibody, chains of the INN, looked up, V domains shown)
VH: QVQLVQSGAEVKKPGASVKISCKASGYSFTAYYIHWVKQAPGQGLEWIGYISNYNRATNYNQKFKGRVTFTTDTSTSTAYMELRSLRSDDTAVYYCARDYDYDVGMDYWGQGTLVTVSS
VL: DIVMTQSPDSLAVSLGERATISCRASESVDNYGISFMKWFQQKPGQPPKLLIYAASNQGSGVPDRFSGSGSGTDFTLTISSLQAEDVAVYYCQQSKEVPWTFGGGTKVEIK
VH2: QVQLVQSGAEVKKPGASVKVSCKASGYTFTNYWMHWVRQAPGQGLEWMGDINPSNGRTSYKEKFKRRVTLSVDKSSSTAYMELSSLRSEDTAVYFCTIHYDDKYYPLMDYWGQGTLVTVSS
VL2: DIVMTQSPDSLAVSLGERATISCRASESVDNYGISFMKWFQQKPGQPPKLLIYAASNQGSGVPDRFSGSGSGTDFTLTISSLQAEDVAVYYCQQSKEVPWTFGGGTKVEIK
modifications: plus chemotherapy
[2]; A (n = 15)
  ORR (%): 60%
  PFS (months): 11.5 months
[2]; Biomarker Negative (n = 30)
  ORR (%): 20%
  PFS (months): 5.7 months
[2]; Biomarker Positive (n = 30), BRCA WT, hormone receptor-positive
  ORR (%): 63.4%
[2]; Biomarker Positive (n = 30)
  PFS (months): 12.3 months
[2]; IA (n = 15)
  ORR (%): 26.7%
  PFS (months): 6.0 months
[2]; ID (n = 15)
  ORR (%): 13.3%
  PFS (months): 5.4 months
[2]; IS (n = 15)
  ORR (%): 66.7%
  PFS (months): 13.1 months
[3]; A (n = 10)
  ORR (%): 54%
  OS (months): 19.0 months
  PFS (months): 13.5 months
[3]; Biomarker Negative (n = 20)
  ORR (%): 34%
  OS (months): 11.9 months
  PFS (months): 9.8 months
[3]; Biomarker Positive (n = 20), BRCA WT
  ORR (%): 56%
[3]; Biomarker Positive (n = 20)
  OS (months): 20.1 months
  PFS (months): 14.2 months
[3]; IA (n = 10)
  ORR (%): 37%
  OS (months): 12.0 months
  PFS (months): 10.9 months
[3]; ID (n = 10)
  ORR (%): 31%
  OS (months): 11.8 months
  PFS (months): 8.7 months
[3]; IS (n = 10)
  ORR (%): 58%
  OS (months): 21.2 months
  PFS (months): 14.7 months

B3: Chemo/Immune Checkpoint Inhibitor/Bavituximab: regimen of chemotherapy, immune checkpoint inhibitor and bavituximab (antibody, chains of the INN, looked up, V domains shown)
VH: EVQLQQSGPELEKPGASVKLSCKASGYSFTGYNMNWVKQSHGKSLEWIGHIDPYYGDTSYNQKFRGKATLTVDKSSSTAYMQLKSLTSEDSAVYYCVKGGYYGHWYFDVWGAGTTVTVSS
VL: DIQMTQSPSSLSASLGERVSLTCRASQDIGSSLNWLQQGPDGTIKRLIYATSSLDSGVPKRFSGSRSGSDYSLTISSLESEDFVDYYCLQYVSSPPTFGAGTKLELK
modifications: with chemotherapy and checkpoint inhibitor
[4]; A (n = 15)
  6 Month PFS (%): 46.7%
  ORR (%): 46.7%
  OS (months): 8.2 months
[4]; IA (n = 15)
  6 Month PFS (%): 80.0%
  ORR (%): 73.3%
  OS (months): 20.2 months
[4]; ID (n = 15)
  6 Month PFS (%): 60.0%
  ORR (%): 53.3%
  OS (months): 11.8 months
[4]; IS (n = 15)
  6 Month PFS (%): 73.3%
  ORR (%): 66.7%
  OS (months): 19.8 months
[4]; whole treatment group (n = 60)
  6 Month PFS (%): 65%
  ORR (%): 60%
  OS (months): 15 months
